Results on one molecule are retold here after patent publication US20030232387A1.

This assay has as its target mutant αEβ7 integrin, αE ΔE163-E180, on transfected K562 cells (human) (UniProt P38570). The assay can be described thus: flow cytometry on K562 cells expressing mutant αEβ7.

mutant αEβ7 integrin, αE ΔE163-E180, on transfected K562 cells (human), sequence (P38570 other isoform, or with tags, fused parts or gaps mutant, chain 1 of 2): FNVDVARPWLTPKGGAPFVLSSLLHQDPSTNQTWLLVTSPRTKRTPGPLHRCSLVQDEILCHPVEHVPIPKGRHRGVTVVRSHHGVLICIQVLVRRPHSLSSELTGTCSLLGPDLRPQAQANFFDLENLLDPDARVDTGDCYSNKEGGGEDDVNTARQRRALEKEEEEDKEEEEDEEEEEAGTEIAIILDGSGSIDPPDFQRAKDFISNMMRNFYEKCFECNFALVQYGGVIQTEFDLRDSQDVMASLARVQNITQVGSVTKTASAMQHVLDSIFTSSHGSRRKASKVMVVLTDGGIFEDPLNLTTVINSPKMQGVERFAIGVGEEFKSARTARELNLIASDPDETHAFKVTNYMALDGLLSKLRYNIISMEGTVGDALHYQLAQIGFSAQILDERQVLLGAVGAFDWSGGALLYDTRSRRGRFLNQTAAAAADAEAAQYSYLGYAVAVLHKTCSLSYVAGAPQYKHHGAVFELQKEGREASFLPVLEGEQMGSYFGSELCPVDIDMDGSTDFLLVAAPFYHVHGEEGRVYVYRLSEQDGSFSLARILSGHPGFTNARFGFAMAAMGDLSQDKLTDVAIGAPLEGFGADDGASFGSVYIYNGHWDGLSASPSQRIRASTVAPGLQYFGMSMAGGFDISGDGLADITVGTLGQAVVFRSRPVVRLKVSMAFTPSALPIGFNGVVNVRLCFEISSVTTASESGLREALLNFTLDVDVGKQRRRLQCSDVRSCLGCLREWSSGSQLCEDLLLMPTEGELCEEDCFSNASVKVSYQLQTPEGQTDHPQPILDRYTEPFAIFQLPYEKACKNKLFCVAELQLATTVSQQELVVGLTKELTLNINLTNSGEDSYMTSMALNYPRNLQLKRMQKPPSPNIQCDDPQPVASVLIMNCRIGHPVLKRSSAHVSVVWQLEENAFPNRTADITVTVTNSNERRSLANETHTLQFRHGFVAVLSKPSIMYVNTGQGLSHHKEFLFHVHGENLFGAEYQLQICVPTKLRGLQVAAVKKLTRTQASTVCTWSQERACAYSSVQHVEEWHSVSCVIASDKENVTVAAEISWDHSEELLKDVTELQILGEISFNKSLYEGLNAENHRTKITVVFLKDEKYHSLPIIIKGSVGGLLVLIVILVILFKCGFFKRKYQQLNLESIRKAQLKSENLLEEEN
mutant αEβ7 integrin, αE ΔE163-E180, on transfected K562 cells (human), sequence (chain, as listed by the source mutant, chain 2 of 2): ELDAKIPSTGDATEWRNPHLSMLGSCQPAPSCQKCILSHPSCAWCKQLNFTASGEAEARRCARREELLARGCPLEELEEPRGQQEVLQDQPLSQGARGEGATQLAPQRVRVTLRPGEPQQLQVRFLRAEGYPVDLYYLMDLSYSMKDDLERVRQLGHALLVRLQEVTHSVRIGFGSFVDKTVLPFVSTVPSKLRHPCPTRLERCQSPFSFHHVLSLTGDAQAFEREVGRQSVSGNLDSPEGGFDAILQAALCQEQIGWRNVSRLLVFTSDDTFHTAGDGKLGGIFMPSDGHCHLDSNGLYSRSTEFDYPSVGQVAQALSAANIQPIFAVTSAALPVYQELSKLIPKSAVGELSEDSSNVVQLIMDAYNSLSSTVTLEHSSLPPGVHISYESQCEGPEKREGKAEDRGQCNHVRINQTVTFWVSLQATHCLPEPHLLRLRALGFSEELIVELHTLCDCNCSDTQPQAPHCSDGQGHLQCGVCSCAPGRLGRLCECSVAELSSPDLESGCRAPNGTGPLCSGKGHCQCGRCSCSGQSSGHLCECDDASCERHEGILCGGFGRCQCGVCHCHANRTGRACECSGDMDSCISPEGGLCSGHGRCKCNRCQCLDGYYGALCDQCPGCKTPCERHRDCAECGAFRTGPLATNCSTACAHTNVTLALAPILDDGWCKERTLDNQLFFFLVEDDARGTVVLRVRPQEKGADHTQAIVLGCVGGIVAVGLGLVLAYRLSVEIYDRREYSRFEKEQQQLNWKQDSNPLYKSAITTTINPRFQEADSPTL

B1: mAb 5E4 (antibody, V domains shown)
VH: EVQLVESGGGLVQPGGSLRLSCAASGFTFSNFWMSWVRQAPGKGLEWMANIKQDGSEKYYVDSVKGRFTISRDNAKSSLFLQMNSLRVDDTAVYFCAGDYYDSGSFYWGQGTLVTVSS
VL: EIVLTQSPATLSLSPGERATLSCRASQSVRSNLAWYQQKPGQAPRLLIYDASNRAIGIPARFSGSGSGTDFTLTISSLEPEDFVVYYCQQRSNWPPWTFGQGTKVEIK
For B1, the % Control Staining was 25%.
